Results: publication PMC12126490 (2025)

Biological target: chromoshadow domain of HP1α (HP1αCSD, aa 109–185 of HP1α) (human, UniProt P45973 109-185)
Sequence (P45973 109-185): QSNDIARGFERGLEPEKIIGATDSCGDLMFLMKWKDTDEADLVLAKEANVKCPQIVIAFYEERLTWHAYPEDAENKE

For RKVPRVSLERL [HP1 box-containing KAP1 peptide (KAP1_(Hbox), aa 483–493 of KAP1)], the Kd was 1.6 µM.
